Paper PMC9613979, “Endothelial alpha globin is a nitrite reductase” (Nature Communications, 2022)
No end group written: not given here. Alexa Fluor 488 = Alexa Fluor 488 fluorescent dye tag

Biological target: T1, recombinant eNOS oxygenase domain
T1 chain: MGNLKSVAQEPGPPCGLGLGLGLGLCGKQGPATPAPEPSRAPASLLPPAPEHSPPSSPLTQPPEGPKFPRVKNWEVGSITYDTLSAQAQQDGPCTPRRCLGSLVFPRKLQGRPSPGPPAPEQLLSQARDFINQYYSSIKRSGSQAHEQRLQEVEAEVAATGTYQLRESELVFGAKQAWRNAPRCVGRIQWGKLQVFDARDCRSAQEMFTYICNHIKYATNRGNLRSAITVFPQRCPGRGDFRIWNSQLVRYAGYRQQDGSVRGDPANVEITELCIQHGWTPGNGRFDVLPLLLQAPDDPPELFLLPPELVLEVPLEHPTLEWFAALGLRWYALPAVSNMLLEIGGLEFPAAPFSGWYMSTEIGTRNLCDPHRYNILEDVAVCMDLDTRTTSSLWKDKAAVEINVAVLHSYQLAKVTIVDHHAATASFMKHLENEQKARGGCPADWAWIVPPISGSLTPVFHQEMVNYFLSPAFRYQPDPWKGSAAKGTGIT
Experiment: fluorescence polarisation; 1 μM recombinant oxygenase domain of eNOS incubated with peptide labelled with Alexa Fluor 488 at the C-terminus; SpectraMax M5 plate reader; triplicate measurements per concentration
Settings: both partners purified

B1: alpha globin mimetic peptide (alpha globin binding sequence LSFPTTKTYF) (peptide)
peptide: LSFPTTKTYF-{Alexa Fluor 488}
notes: source: synthetic peptide (AnaSpec)
Kd: 16.8 nM
